T1: Macaca fascicularis GP130 extracellular domain expressed with a C-terminal myc-myc-hexahistidine tag (Macaca fascicularis, UniProt P40189 23-619 (human entry))
T1 construct: Monomeric reagent; also called mfGP130-mmH; mfGP130-MMH
T1 chain: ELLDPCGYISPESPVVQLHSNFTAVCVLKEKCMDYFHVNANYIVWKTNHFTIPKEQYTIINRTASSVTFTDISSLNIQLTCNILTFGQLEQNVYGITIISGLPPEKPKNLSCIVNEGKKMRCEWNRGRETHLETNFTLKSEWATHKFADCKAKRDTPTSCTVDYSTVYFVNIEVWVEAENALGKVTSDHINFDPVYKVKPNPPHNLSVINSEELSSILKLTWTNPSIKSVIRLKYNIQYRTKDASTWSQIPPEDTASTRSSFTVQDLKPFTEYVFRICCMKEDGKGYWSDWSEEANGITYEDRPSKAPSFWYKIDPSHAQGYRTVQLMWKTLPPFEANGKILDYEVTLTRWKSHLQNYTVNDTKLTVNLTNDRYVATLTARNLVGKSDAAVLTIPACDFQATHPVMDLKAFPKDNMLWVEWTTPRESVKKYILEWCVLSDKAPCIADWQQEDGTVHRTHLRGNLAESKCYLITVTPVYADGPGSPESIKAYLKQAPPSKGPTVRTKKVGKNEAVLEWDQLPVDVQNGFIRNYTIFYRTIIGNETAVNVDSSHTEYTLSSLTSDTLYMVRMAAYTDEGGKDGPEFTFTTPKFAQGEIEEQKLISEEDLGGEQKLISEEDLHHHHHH

B1: MAb16636 (antibody, V domains shown)
VH: QLQLQESGPGLVKPSETLSLICTVSGGSISSNNYYWGWIRQPPGKGLEWIGNLYGSGSTYYNPSLKSRVTISVDTSKNQFSLKLSFVTAADTAVYHCARWDTNGGAFDIWGQGTMVTVSS
VL: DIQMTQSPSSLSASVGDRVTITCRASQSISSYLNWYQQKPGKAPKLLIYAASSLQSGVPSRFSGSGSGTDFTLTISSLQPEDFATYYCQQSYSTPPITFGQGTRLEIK
B2: MAb16637 (antibody, V domains shown)
VH: QVQLVQSGAEVKKPGASVKVSCKASGYTFTSLGISWVRQAPGQGLEWMGWISAYSGNRDYAQKFQGRVTMTTDTSTSTAYMELRSLRSDDTAVYYCARSLRFDYWGQGTLVTVSS
VL: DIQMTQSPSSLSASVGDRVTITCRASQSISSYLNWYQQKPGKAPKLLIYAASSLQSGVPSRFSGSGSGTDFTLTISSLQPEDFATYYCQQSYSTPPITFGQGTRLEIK
B3: MAb16656 (antibody, V domains shown)
VH: EVQLVESGGGLVQPGRSLRLSCAASGFTLDDFAMHWVRQAPGKGLEWVSGISWNSGNIGYADSVKGRFTISRDNARNSLYLQMNSLRAEDTALYYCTSGYYLYYAMDVWGQGTTVTVSS
VL: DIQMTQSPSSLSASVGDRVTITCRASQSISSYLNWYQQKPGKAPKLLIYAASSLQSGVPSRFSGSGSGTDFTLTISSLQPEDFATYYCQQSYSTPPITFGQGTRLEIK
B4: MAb16659 (antibody, V domains shown)
VH: QVQLVQSGPEVKKPGSSVKVSCKASGGTIDRNEITWVRQAPGQGLEWMGVIIPILGEAHYERKFQGRLTITMDESTSTAYMELSNLRSEDTAVYYCARERAARGYLDYWGQGTLVTVSS
VL: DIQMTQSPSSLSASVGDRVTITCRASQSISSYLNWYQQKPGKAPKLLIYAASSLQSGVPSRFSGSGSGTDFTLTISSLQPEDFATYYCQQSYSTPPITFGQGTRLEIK
B5: MAb16662 (antibody, V domains shown)
VH: EVQLVESGGGLVQPGGSLRLSCTASGFTFSNYAIFWVRQAPGKGLEYVSGISNNGVTKYYADSVRDRFTISRDNSRNTVSIQMDSLRTEDMAVYYCARENWGSDDGFDIWGQGTMVTVSS
VL: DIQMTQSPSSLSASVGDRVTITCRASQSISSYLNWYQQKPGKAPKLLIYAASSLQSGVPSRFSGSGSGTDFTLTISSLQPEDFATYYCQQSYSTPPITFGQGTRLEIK
B6: MAb16664 (antibody, V domains shown)
VH: QVQLVQSGTEVKKPGSSVKVSCKASGGTFSTYPINWVRQAPGQGLEWMGGIIPIFGTASYAQKFQGRVAITTDESTSTAYMELNSLRSEDTAVYYCARERPNWGSNDYWGQGTLVTVSS
VL: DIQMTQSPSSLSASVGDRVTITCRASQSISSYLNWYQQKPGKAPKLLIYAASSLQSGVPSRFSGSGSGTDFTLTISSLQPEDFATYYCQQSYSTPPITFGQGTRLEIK
B7: MAb16665 (antibody, V domains shown)
VH: QVQLVESGGGVVQPGRSLRLACAASGFTFRSYGMHWVRQAPGKGLEWVAVIWYDGSNKYYTDSVKGRFTISRDNSKNTLYLQMNSLRAEDTAMYYCAIDKWATVTTYLFDYWGQGTLVTVSS
VL: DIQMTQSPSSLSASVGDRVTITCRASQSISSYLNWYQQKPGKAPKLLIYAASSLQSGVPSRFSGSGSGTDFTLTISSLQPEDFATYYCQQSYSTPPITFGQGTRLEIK
B8: MAb16666 (antibody, V domains shown)
VH: EVQLVESGGGLVQSGGSLRLSCAASGFTFSRYEMNWVRQAPGKGLEWVAYISNTGTTRDYSDSVKGRFTISRDNAKNSLYLQMSSLRVEDTAVYYCVREKFSGTSDWFDPWGQGTLVTVSS
VL: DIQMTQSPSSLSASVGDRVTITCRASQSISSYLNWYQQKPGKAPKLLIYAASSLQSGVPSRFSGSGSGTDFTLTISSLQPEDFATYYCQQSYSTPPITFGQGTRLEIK
B9: MAb16669 (antibody, V domains shown)
VH: EVQLVESGGGLVQPGGSLRLSCAASGFTFSSYAMNWVRQAPGKGLEWVSAISGSGDSTYYTDSVKGRFTISRDNSKNTLYLQMNTLRAEDTAVYYCAKEEIVMLVGATPGWFDPWGQGTLVTVSS
VL: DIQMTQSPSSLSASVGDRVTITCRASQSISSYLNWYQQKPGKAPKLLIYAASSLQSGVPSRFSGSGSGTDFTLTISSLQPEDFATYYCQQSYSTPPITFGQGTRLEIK
B10: MAb16673 (antibody, V domains shown)
VH: EVQLVQSGAEVKKPGESLKISCKGSGYSFTSYWIDWVRQMPGKGLEWMGIIYPDDSDTRYSPSFQGQVTMSVDKSISTAYLQWSSLKASDTAIYYCARHERGIVEAGTDYYYYYGMDVWGQGTTVTVSS
VL: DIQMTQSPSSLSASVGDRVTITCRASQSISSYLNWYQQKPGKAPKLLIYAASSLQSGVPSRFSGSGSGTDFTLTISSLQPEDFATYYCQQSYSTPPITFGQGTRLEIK
B11: MAb16676 (antibody, V domains shown)
VH: QVQLVQSGAEVMKPGASVKVSCRASGYTFSSYDINWVRQAPGQGLEWMGWISTATGNTNYPQKVQGRVTMTTDTSTNTAYMELRSLRSDDTAVYYCTREGNSKGWLDPWGQGTLVTVSS
VL: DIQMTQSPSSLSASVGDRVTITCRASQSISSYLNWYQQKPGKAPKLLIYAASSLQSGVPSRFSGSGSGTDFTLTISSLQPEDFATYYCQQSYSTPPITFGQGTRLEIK
B12: MAb16682 (antibody, V domains shown)
VH: EVQLVESGGGLVQPGGSLRLSCAASGFTFSTYWMNWVRQAPGKGLEWVANIKEDGSEKYYVDSVKGRFTISRDNAKNSLYLQMNSLRAEDTAVYYCAREGFGVVTYIWGQGTMVTVSS
VL: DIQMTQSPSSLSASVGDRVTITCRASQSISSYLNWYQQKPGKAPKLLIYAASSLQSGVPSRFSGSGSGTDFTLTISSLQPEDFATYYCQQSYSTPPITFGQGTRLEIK

biological target: T2, human GP130 extracellular domain expressed with a C-terminal myc-myc-hexahistidine tag (human, UniProt P40189 23-619); test: SPR (Biacore 4000), mAb captured on anti-human Fc, 37 C
T2 construct: Monomeric reagent; also called hGP130-mmH; hGP130-MMH
Description: (§1) Equilibrium dissociation constant (KD) for different GP130 reagents binding to purified anti-GP130 monoclonal antibodies were determined using a real-time surface plasmon resonance based Biacore 4000 biosensor. All binding studies were performed in 10 mM HEPES, 150 mM NaCl, 3 mM EDTA, and 0.05% v/v Surfactant Tween-20, pH 7.4 (HBS-ET) running buffer at 25° C. and 37° C. The Biacore sensor surface was first derivatized by amine coupling with a monoclonal mouse anti-human Fc antibody (GE, #BR-1008-39) to capture anti-GP130 monoclonal antibodies. […] Reagents tagged with “mmH” are monomeric, whereas reagents tagged with “mFc” are dimeric. Thus, for example, “hGP130-mmH” is also referred to as “monomeric human GP130,” and “hGP130-mFc” is also referred to as “dimeric human GP130.”
(§2) The association rate (k a) and dissociation rate (kd) were determined by fitting the real-time binding sensorgrams to a 1:1 binding model with mass transport limitation using Scrubber 2.0c curve-fitting software. Binding dissociation equilibrium constant (KD) and dissociative half-life (t ½) were calculated from the kinetic rates as: […]

| Binder | 100 nM Ag Bound | Kd | koff | kon | t½ |
| --- | --- | --- | --- | --- | --- |
| B1 | 50 RU | 71.6 nM | 0.00441 s⁻¹ | 61600 M⁻¹ s⁻¹ | 2.6 min |
| B2 | 110 RU | 17.3 nM | 0.00342 s⁻¹ | 197000 M⁻¹ s⁻¹ | 3 min |
| B3 | 50 RU | 60.7 nM | 0.00426 s⁻¹ | 70100 M⁻¹ s⁻¹ | 2.7 min |
| B4 | 82 RU | 1.84 nM | 0.00171 s⁻¹ | 928000 M⁻¹ s⁻¹ | 7 min |
| B5 | 17 RU | 134 nM | 0.0585 s⁻¹ | 436000 M⁻¹ s⁻¹ | 0.2 min |
| B6 | 16 RU | 14.2 nM | 0.00826 s⁻¹ | 580000 M⁻¹ s⁻¹ | 1.4 min |
| B7 | 19 RU | 164 nM | 0.0693 s⁻¹ | 423000 M⁻¹ s⁻¹ | 0.2 min |
| B8 | 104 RU | 17.1 nM | 0.0101 s⁻¹ | 588000 M⁻¹ s⁻¹ | 1.1 min |
| B9 | 25 RU | 19.3 nM | 0.00106 s⁻¹ | 55100 M⁻¹ s⁻¹ | 11 min |
| B10 | 40 RU | 75.4 nM | 0.0404 s⁻¹ | 536000 M⁻¹ s⁻¹ | 0.3 min |
| B11 | 52 RU | 6.01 nM | 0.00236 s⁻¹ | 393000 M⁻¹ s⁻¹ | 5 min |
| B12 | 16 RU | 113 nM | 0.0341 s⁻¹ | 301000 M⁻¹ s⁻¹ | 0.3 min |

Biological target: T1, Macaca fascicularis GP130 extracellular …
Test: as above
Description: as §1, §2

| Binder | 100 nM Ag Bound | Kd | koff | kon | t½ |
| --- | --- | --- | --- | --- | --- |
| B1 | 25 RU | 239 nM | 0.00945 s⁻¹ | 39500 M⁻¹ s⁻¹ | 1.2 min |
| B2 | 104 RU | 14.8 nM | 0.00263 s⁻¹ | 178000 M⁻¹ s⁻¹ | 4 min |
| B3 | 47 RU | 61.3 nM | 0.00411 s⁻¹ | 67000 M⁻¹ s⁻¹ | 2.8 min |
| B4 | 78 RU | 2.34 nM | 0.00174 s⁻¹ | 747000 M⁻¹ s⁻¹ | 7 min |
| B5 | 14 RU | 167 nM | 0.0592 s⁻¹ | 355000 M⁻¹ s⁻¹ | 0.2 min |
| B6 | 16 RU | 11.6 nM | 0.00788 s⁻¹ | 680000 M⁻¹ s⁻¹ | 1.5 min |
| B7 | 14 RU | 205 nM | 0.101 s⁻¹ | 492000 M⁻¹ s⁻¹ | 0.1 min |
| B8 | 90 RU | 24.7 nM | 0.0131 s⁻¹ | 528000 M⁻¹ s⁻¹ | 0.9 min |
| B9 | 8 RU | – | – | – | – |
| B10 | 64 RU | 34.1 nM | 0.0211 s⁻¹ | 617000 M⁻¹ s⁻¹ | 0.5 min |
| B11 | 48 RU | 7.12 nM | 0.00243 s⁻¹ | 341000 M⁻¹ s⁻¹ | 5 min |
| B12 | 15 RU | 124 nM | 0.0386 s⁻¹ | 311000 M⁻¹ s⁻¹ | 0.3 min |

Biological target: T1, Macaca fascicularis GP130 extracellular …
Test: SPR (Biacore 4000), mAb captured on anti-human Fc, 25 C
Description: as §1, §2

| Binder | 100 nM Ag Bound | Kd | koff | kon | t½ | binding result |
| --- | --- | --- | --- | --- | --- | --- |
| B1 | 23 RU | 107 nM | 0.00216 s⁻¹ | 20100 M⁻¹ s⁻¹ | 5 min | – |
| B2 | 87 RU | 15.9 nM | 0.00109 s⁻¹ | 68300 M⁻¹ s⁻¹ | 11 min | – |
| B3 | 42 RU | 19 nM | 0.000846 s⁻¹ | 44400 M⁻¹ s⁻¹ | 14 min | – |
| B4 | 74 RU | 0.812 nM | 0.00044 s⁻¹ | 542000 M⁻¹ s⁻¹ | 26 min | – |
| B5 | 15 RU | 184 nM | 0.038 s⁻¹ | 207000 M⁻¹ s⁻¹ | 0.3 min | – |
| B6 | 13 RU | 3.21 nM | 0.00175 s⁻¹ | 543000 M⁻¹ s⁻¹ | 7 min | – |
| B7 | 16 RU | 233 nM | 0.0505 s⁻¹ | 217000 M⁻¹ s⁻¹ | 0.2 min | – |
| B8 | 123 RU | 18.3 nM | 0.0053 s⁻¹ | 290000 M⁻¹ s⁻¹ | 2.2 min | – |
| B9 | 3 RU | – | – | – | – | no binding (tested: 100 nM) |
| B10 | 86 RU | 22.2 nM | 0.00693 s⁻¹ | 312000 M⁻¹ s⁻¹ | 1.7 min | – |
| B11 | 49 RU | 2.2 nM | 0.000597 s⁻¹ | 272000 M⁻¹ s⁻¹ | 19 min | – |
| B12 | 20 RU | 132 nM | 0.0168 s⁻¹ | 128000 M⁻¹ s⁻¹ | 0.7 min | – |
